From patent US20160089413

Tested on: all-D-retro-inverso JNK-inhibitor (poly-)peptide of SEQ ID NO: 11

c-Jun NH2-terminal kinases (JNK) was tested, and the “c-Jun phosphorylation in RPE/choroid, densitometry of phospho c-Jun relative to tubulin, 24 h after IV injection (20 µg/kg)” value was 0.28±0.01 vs 0.77±0.26 in IV of vehicle, the “c-Jun phosphorylation in RPE/choroid, densitometry of phospho c-Jun relative to tubulin, 24 h after IVT injection (0.2 µg/injection)” value was 0.35±0.08 vs 0.79±0.25 in IVT of vehicle and the “c-Jun phosphorylation in RPE/choroid, densitometry of phospho c-Jun relative to tubulin, fold decrease against vehicle” value was “An approximately 3-fold decrease in c-Jun phosphorylation”.
